Here are results for three proteins from article PMC8342540, “The middle lipin domain adopts a membrane-binding dimeric protein fold” (Nature Communications, 2021).

Usually stoichiometry N stands for the number of molecules, sites or subunits per partner or assembly.

Data set [1] concerns the molecule itself. The data set is described as follows: crystal structure; mouse lipin 2 M-Lip^xtal, 0.2 M calcium acetate, 20% PEG 3350, hanging drop, RT.
Data set [2] concerns the molecule itself. The experiment in a line: SEC-MALS; 1.6 mg injected onto Superdex 200 Increase 10/300, flow 0.35 ml/min. A general note: SEC sorts molecules by how far they enter the pores of the column.
Data set [3] concerns the molecule itself. The experiment in a line: SEC; Superdex 200 10/300 in 20 mM Tris pH 8.0, 150 mM NaCl, 10 mM 2-mercaptoethanol; elution compared with MW standards.

B1: mouse lipin 2 M-Lip^xtal domain (residues 459–549) (domain or fragment, UniProt Q99PI5 459-549, looked up)
chain: SAMDLPDVTLSLCGGLSENGEISKEKFMEHIITYHEFAENPGLIDNPNLVIRIYNRYYNWALAAPMILSLQVFQKSLPKATVESWVKDKMP
notes: mouse lipin 2, M-Lip^xtal domain, residues 459–549; Cloned into pET28b with NdeI and NotI; the purification section names pET28a; source: E. coli BL21 (DE3) RIPL, purified (Ni-NTA, SEC)
With B1, in data set [1], the binding result is listed as “binds”.

B2: mouse lipin 1 M-Lip^xtal domain (residues 458–548), as used in SEC-MALS (domain or fragment, UniProt Q91ZP3-2 458-548, looked up)
chain: SLRDLPSIAISLCGGLSDHREITKDAFLEQAVSYQQFADNPAIIDDPNLVVKVGNKYYNWTTAAPLLLAMQAFQKPLPKATVESIMRDKMP
notes: mouse lipin 1, M-Lip^xtal domain, residues 458–548; numbers count on: mouse lipin 1 alpha (891 residues); The stated dimer mass of 26 kDa (13 kDa a chain) would fit the 91 residues plus a vector-encoded His tag (surmise); source: E. coli BL21 (DE3) RIPL, purified (Ni-NTA, SEC)
In the case of B2, the “stoichiometry N” value in data set [2] worked out at 2.

B3: full-length mouse lipin 1 alpha (residues 1–891), from Sf9 cells (natural protein, UniProt Q91ZP3-2 1-891, looked up)
chain: MNYVGQLAGQVFVTVKELYKGLNPATLSGCIDIIVIRQPNGSLQCSPFHVRFGKMGVLRSREKVVDIEINGESVDLHMKLGDNGEAFFVQETDNDQEIIPMYLATSPILSEGAARMESQLKRNSVDRIRCLDPTTAAQGLPPSDTPSTGSLGKKRRKRRRKAQLDNLKRDDNVNSSEDEDMFPIEMSSDEDTAPMDGSRTLPNDVPPFQDDIPKENFPSISTHPQSASYPSSDREWSPSPSPSGSRPSTPKSDSELVSKSADRLTPKNNLEMLWLWGELPQAAKSSSPHKMKESSPLGSRKTPDKMNFQAIHSESSDTFSDQSPTMARGLLIHQSKAQTEMQFVNEEDLESLGAAAPPSPVAEELKAPYPNTAQSSSKTDSPSRKKDKRSRHLGADGVYLDDLTDMDPEVAALYFPKNGDPGGLPKQASDNGARSANQSPQSVGGSGIDSGVESTSDSLRDLPSIAISLCGGLSDHREITKDAFLEQAVSYQQFADNPAIIDDPNLVVKVGNKYYNWTTAAPLLLAMQAFQKPLPKATVESIMRDKMPKKGGRWWFSWRGRNATIKEESKPEQCLTGKGHNTGEQPAQLGLATRIKHESSSSDEEHAAAKPSGSSHLSLLSNVSYKKTLRLTSEQLKSLKLKNGPNDVVFSVTTQYQGTCRCEGTIYLWNWDDKVIISDIDGTITRSDTLGHILPTLGKDWTHQGIAKLYHKVSQNGYKFLYCSARAIGMADMTRGYLHWVNERGTVLPQGPLLLSPSSLFSALHREVIEKKPEKFKVQCLTDIKNLFFPNTEPFYAAFGNRPADVYSYKQVGVSLNRIFTVNPKGELVQEHAKTNISSYVRLCEVVDHVFPLLKRSHSCDFPCSDTFSNFTFWREPLPPFENQDMHSASA
notes: mouse lipin 1 alpha, full length, residues 1–891 (891 residues printed); Vector YM-Bac3, a modified pFastBac Htb; also called wild-type lipin 1; recombinant lipin 1; source: Sf9, baculovirus, purified (Ni-NTA, Streptactin-XT, SEC)
B3: in data set [3], the binding result is recorded as “binds”.
